Results published in paper PMC7111020 (2007).

T1: mTIM-1 (Mus musculus, UniProt Q5QNS5)
T1 chain: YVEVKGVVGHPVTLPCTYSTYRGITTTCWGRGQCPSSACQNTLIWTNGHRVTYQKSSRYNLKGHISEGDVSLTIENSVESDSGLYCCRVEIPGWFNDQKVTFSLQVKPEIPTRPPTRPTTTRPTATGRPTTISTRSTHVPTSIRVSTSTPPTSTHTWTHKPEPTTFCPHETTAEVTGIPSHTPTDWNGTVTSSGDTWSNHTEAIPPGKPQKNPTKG

B1: mTIM-1 ECD (protein)
chain: YVEVKGVVGHPVTLPCTYSTYRGITTTCWGRGQCPSSACQNTLIWTNGHRVTYQKSSRYNLKGHISEGDVSLTIENSVESDSGLYCCRVEIPGWFNDQKVTFSLQVKPEIPTRPPTRPTTTRPTATGRPTTISTRSTHVPTSIRVSTSTPPTSTHTWTHKPEPTTFCPHETTAEVTGIPSHTPTDWNGTVTSSGDTWSNHTEAIPPGKPQKNPTKG
B2: mTIM-2 20-129 (protein)
chain: ESHTAVQGLAGHPVTLPCIYSTHLGGIVPMCWGLGECRHSYCIRSLIWTNGYTVTHQRNSLYQLKGNISEGNVSLTIENTVVGDGGPYCCVVEIPGAFHFVDYMLEVKPE

What was measured:
mTIM-1 = target: T1, mTIM-1; experiment: SPR
[1] = target: the molecule itself; experiment: sedimentation equilibrium analytical ultracentrifugation

Binder | Kd (mTIM-1) [µM] | Kd [1] [µM]
B1 | ~0.6 | 
B2 |  | ~300
